This note sets out measurements from patent US20120100139A1 (APTEVO RESEARCH AND DEVELOPMENT, published 2012).

The target of test [1] is T1, CD86 on cells (WIL2-S human B-lymphoblastoid cells; HuCD86-2A2 CHO cells expressing CD86) (human, UniProt P42081 24-329).
T1 construct: whole, on cells; also called cell surface CD86
T1 sequence (looked up): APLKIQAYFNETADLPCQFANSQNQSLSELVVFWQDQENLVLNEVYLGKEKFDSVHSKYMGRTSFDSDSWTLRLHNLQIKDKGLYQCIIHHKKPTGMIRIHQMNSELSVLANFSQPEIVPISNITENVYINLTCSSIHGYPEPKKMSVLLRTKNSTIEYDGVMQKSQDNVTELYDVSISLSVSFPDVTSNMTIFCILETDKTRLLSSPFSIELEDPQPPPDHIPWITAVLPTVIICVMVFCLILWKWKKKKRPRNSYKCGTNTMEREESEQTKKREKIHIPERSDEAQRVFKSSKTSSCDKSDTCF
Nature of the test: flow cytometry, HEK293 supernatants on HuCD86-2A2 cells. As to the method: (§1) Briefly, WIL2-S or HuCD86-2A2 cells were incubated with test molecules containing a CD86 antagonist at concentrations ranging from saturation to background levels. […] After the incubation, cells were washed and a fluorophore (R-phycoerythrin) tagged F(Ab′)₂ antibody specific for the Fc portion of the xceptor molecule, IL10R-Ig fusion protein, or anti-IL10 antibody. The tagged cells were then passed through a flow cytometer and data was analyzed by plotting median fluorescence intensity of each sample.
In another experiment, different versions of humanized FUN1 SMIPs were tested for CD86 binding. Supernatants of HEK293 cells transiently transfected with the six different versions of humanized FUN1 SMIPs were examined for CD86 binding using HuCD86-2A2 cells.
A general note: Flow cytometry measures light scatter and fluorescence of single cells or particles in a stream.

Test [2] addresses T1, CD86 on cells (WIL2-S human …). Nature of the test: flow cytometry on WIL2-S cells. As to the method: as §1
In a further test the target is T2, CD86-mIgG (Ancell, Inc) (UniProt P42081 24-247, limits assumed).
T2 construct: Bought reagent
T2 sequence (looked up): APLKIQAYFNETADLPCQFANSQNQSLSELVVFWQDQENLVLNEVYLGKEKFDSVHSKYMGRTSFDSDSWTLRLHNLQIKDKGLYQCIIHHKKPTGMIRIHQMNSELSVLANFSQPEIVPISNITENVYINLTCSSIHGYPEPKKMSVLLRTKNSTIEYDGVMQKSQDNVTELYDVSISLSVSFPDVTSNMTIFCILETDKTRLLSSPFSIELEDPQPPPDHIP
Nature of the test: SPR, CD86-mIgG immobilized; reference of the comparison. In general terms: In SPR one partner is held on a chip, and binding of the other changes the refractive index at the surface.

B1: FUN1-22 humanized FUN1 SMIP (Fc fusion)
chain: QVQLVQSGAEVKKPGASVKVSCKASGYTFTDYNMNWVRQAPGQGLEWMGNIDPYYGGTSYNQKFKGRVTMTRDTSISTAYMELSRLRSDDTAVYYCARWDYRYDDGRAYYVMDFWGQGTTVTVSSGGGGSGGGGSGGGGSGGGGSDIQMTQSPSSLSASVGDRVTITCKSSQSVLYSSNQKNYLAWYQQKPGKVPKLLIYWASTRESGVPSRFSGSGSGTDFTLTISSLQPEDVATYYCHQYLYSWTFGQGTKLEIKRLEPKSSDKTHTCPPCPAPEAAGAPSVFLFPPKPKDTLMISRTPEVTCVVVDVSHEDPEVKFNWYVDGVEVHNAKTKPREEQYNSTYRVVSVLTVLHQDWLNGKAYACAVSNKALPAPIEKTISKAKGQPREPQVYTLPPSRDELTKNQVSLTCLVKGFYPSDIAVEWESNGQPENNYKTTPPVLDSDGSFFLYSKLTVDKSRWQQGNVFSCSVMHEALHNHYTQKSLSLSPG
notes: SMIP: scFv-hinge-Fc single chain
Take B1: in test [1], the binding result is “binds”.

B2: FUN1::IL10 xceptor (Fc fusion)
chain: EVQLQQSGPELEKPGASVKISCKASGYSFTDYNMNWVKQSNGKSLEWIGNIDPYYGGTSYNQKFKGKATLTVDKSSSTAYMQLNSLTSEDSAVYFCARWDYRYDDGRAYYVMDFWGQGTSVTVSSGGGGSGGGGSGGGGSGGGGSELQMTQSPSSLAASAGEKVTMSCKSSQSVLYSSNQKNYLAWYQQKPGQSPKLLIYWASTRESGVPDRFTGSGSGTHFTLTVSSVQAEDLAVYYCHQYLYSWTFGGGTNLEIKRLEPKSSDKTHTCPPCPAPEAAGAPSVFLFPPKPKDTLMISRTPEVTCVVVDVSHEDPEVKFNWYVDGVEVHNAKTKPREEQYNSTYRVVSVLTVLHQDWLNGKAYACAVSNKALPAPIEKTISKAKGQPREPQVYTLPPSRDELTKNQVSLTCLVKGFYPSDIAVEWESNGQPENNYKTTPPVLDSDGSFFLYSKLTVDKSRWQQGNVFSCSVMHEALHNHYTQKSLSLSPGNSLFNQEVQIPLTESYSPNSSPGQGTQSENSCTHFPGNLPNMLRDLRDAFSRVKTFFQMKDQLDNLLLKESLLEDFKGYLGCQALSEMIQFYLEEVMPQAENQDPDIKAHVNSLGENLKTLRLRLRRCHRFLPCENKSKAVEQVKNAFNKLQEKGIYKAMSEFDIFINYIEAYMTMKIRN
notes: anti-CD86 FUN1 scFv - Fc - IL10
As to B2, the binding result in test [2] is “binds”; with CD86-mIgG (Ancell, Inc), “binds”.
